The labels stand for the following.
B1: Anti-IL-6 antibody, heavy chain S35H, G66D, Q99F / light chain M32L, M50D, N52S, M88Q (antibody, IgG1, V domains shown)
VH: EVQLVESGGGLVQPGGSLRLSCAASGFTFSPFAMHWVRQAPGKGLEWVAKISPGGSWTYYSDTVTDRFTFSLDTSKSTAYLQMNSLRAEDTAVYYCARFLWGYYALDIWGQGTLVTVSS
VL: DIQLTQSPSSLSASVGDRVTITCSASISVSYLYWYQQKPGKAPKLLIYDDSSLASGVPSRFSGSGSGTDFTLTISSLQPEDFATYYCQQWSGYPYTFGQGTKVEIK
notes: IgG1; variable domains only; VL is variant III
B2: Anti-IL-6 antibody, heavy chain S35H, G66D, Q99R / light chain WT (antibody, IgG1, V domains shown)
VH: EVQLVESGGGLVQPGGSLRLSCAASGFTFSPFAMHWVRQAPGKGLEWVAKISPGGSWTYYSDTVTDRFTFSLDTSKSTAYLQMNSLRAEDTAVYYCARRLWGYYALDIWGQGTLVTVSS
VL: DIQLTQSPSSLSASVGDRVTITCSASISVSYMYWYQQKPGKAPKLLIYDMSNLASGVPSRFSGSGSGTDFTLTISSLQPEDFATYYCMQWSGYPYTFGQGTKVEIK
notes: IgG1; variable domains only
B3: Anti-IL-6 antibody, heavy chain S35H, G66D, Q99S / light chain M32L, M50D, N52S, M88Q (antibody, IgG1, V domains shown)
VH: EVQLVESGGGLVQPGGSLRLSCAASGFTFSPFAMHWVRQAPGKGLEWVAKISPGGSWTYYSDTVTDRFTFSLDTSKSTAYLQMNSLRAEDTAVYYCARSLWGYYALDIWGQGTLVTVSS
VL: DIQLTQSPSSLSASVGDRVTITCSASISVSYLYWYQQKPGKAPKLLIYDDSSLASGVPSRFSGSGSGTDFTLTISSLQPEDFATYYCQQWSGYPYTFGQGTKVEIK
notes: as for B1
B4: Anti-IL-6 antibody, heavy chain S35H, G66D, Q99H / light chain WT (antibody, IgG1, V domains shown)
VH: EVQLVESGGGLVQPGGSLRLSCAASGFTFSPFAMHWVRQAPGKGLEWVAKISPGGSWTYYSDTVTDRFTFSLDTSKSTAYLQMNSLRAEDTAVYYCARHLWGYYALDIWGQGTLVTVSS
VL: DIQLTQSPSSLSASVGDRVTITCSASISVSYMYWYQQKPGKAPKLLIYDMSNLASGVPSRFSGSGSGTDFTLTISSLQPEDFATYYCMQWSGYPYTFGQGTKVEIK
notes: IgG1; variable domains only
B5: Anti-IL-6 antibody, heavy chain S35H, G66D, Q99K / light chain WT (antibody, IgG1, V domains shown)
VH: EVQLVESGGGLVQPGGSLRLSCAASGFTFSPFAMHWVRQAPGKGLEWVAKISPGGSWTYYSDTVTDRFTFSLDTSKSTAYLQMNSLRAEDTAVYYCARKLWGYYALDIWGQGTLVTVSS
VL: DIQLTQSPSSLSASVGDRVTITCSASISVSYMYWYQQKPGKAPKLLIYDMSNLASGVPSRFSGSGSGTDFTLTISSLQPEDFATYYCMQWSGYPYTFGQGTKVEIK
notes: IgG1; variable domains only
B6: Anti-IL-6 antibody, heavy chain S35H, G66D, Q99R / light chain M32L, M50D, N52S, M88Q (antibody, IgG1, V domains shown)
VH: EVQLVESGGGLVQPGGSLRLSCAASGFTFSPFAMHWVRQAPGKGLEWVAKISPGGSWTYYSDTVTDRFTFSLDTSKSTAYLQMNSLRAEDTAVYYCARRLWGYYALDIWGQGTLVTVSS
VL: DIQLTQSPSSLSASVGDRVTITCSASISVSYLYWYQQKPGKAPKLLIYDDSSLASGVPSRFSGSGSGTDFTLTISSLQPEDFATYYCQQWSGYPYTFGQGTKVEIK
notes: as for B1
B7: Anti-IL-6 antibody, heavy chain S35H, G66D, Q99L / light chain M32L, M50D, N52S, M88Q (antibody, IgG1, V domains shown)
VH: EVQLVESGGGLVQPGGSLRLSCAASGFTFSPFAMHWVRQAPGKGLEWVAKISPGGSWTYYSDTVTDRFTFSLDTSKSTAYLQMNSLRAEDTAVYYCARLLWGYYALDIWGQGTLVTVSS
VL: DIQLTQSPSSLSASVGDRVTITCSASISVSYLYWYQQKPGKAPKLLIYDDSSLASGVPSRFSGSGSGTDFTLTISSLQPEDFATYYCQQWSGYPYTFGQGTKVEIK
notes: as for B1
B8: Anti-IL-6 antibody, heavy chain S35H, G66D, Q99G / light chain M32L, M50D, N52S, M88Q (antibody, IgG1, V domains shown)
VH: EVQLVESGGGLVQPGGSLRLSCAASGFTFSPFAMHWVRQAPGKGLEWVAKISPGGSWTYYSDTVTDRFTFSLDTSKSTAYLQMNSLRAEDTAVYYCARGLWGYYALDIWGQGTLVTVSS
VL: DIQLTQSPSSLSASVGDRVTITCSASISVSYLYWYQQKPGKAPKLLIYDDSSLASGVPSRFSGSGSGTDFTLTISSLQPEDFATYYCQQWSGYPYTFGQGTKVEIK
notes: as for B1
B9: Anti-IL-6 antibody, heavy chain S35H, G66D, Q99I / light chain WT (antibody, IgG1, V domains shown)
VH: EVQLVESGGGLVQPGGSLRLSCAASGFTFSPFAMHWVRQAPGKGLEWVAKISPGGSWTYYSDTVTDRFTFSLDTSKSTAYLQMNSLRAEDTAVYYCARILWGYYALDIWGQGTLVTVSS
VL: DIQLTQSPSSLSASVGDRVTITCSASISVSYMYWYQQKPGKAPKLLIYDMSNLASGVPSRFSGSGSGTDFTLTISSLQPEDFATYYCMQWSGYPYTFGQGTKVEIK
notes: IgG1; variable domains only
B10: Anti-IL-6 antibody, heavy chain S35H, G66D, Q99I / light chain M32L, M50D, N52S, M88Q (antibody, IgG1, V domains shown)
VH: EVQLVESGGGLVQPGGSLRLSCAASGFTFSPFAMHWVRQAPGKGLEWVAKISPGGSWTYYSDTVTDRFTFSLDTSKSTAYLQMNSLRAEDTAVYYCARILWGYYALDIWGQGTLVTVSS
VL: DIQLTQSPSSLSASVGDRVTITCSASISVSYLYWYQQKPGKAPKLLIYDDSSLASGVPSRFSGSGSGTDFTLTISSLQPEDFATYYCQQWSGYPYTFGQGTKVEIK
notes: as for B1
B11: Anti-IL-6 antibody, heavy chain S35H, G66D, Q99L / light chain WT (antibody, IgG1, V domains shown)
VH: EVQLVESGGGLVQPGGSLRLSCAASGFTFSPFAMHWVRQAPGKGLEWVAKISPGGSWTYYSDTVTDRFTFSLDTSKSTAYLQMNSLRAEDTAVYYCARLLWGYYALDIWGQGTLVTVSS
VL: DIQLTQSPSSLSASVGDRVTITCSASISVSYMYWYQQKPGKAPKLLIYDMSNLASGVPSRFSGSGSGTDFTLTISSLQPEDFATYYCMQWSGYPYTFGQGTKVEIK
notes: IgG1; variable domains only
B12: Anti-IL-6 antibody, heavy chain S35H, G66D, Q99S / light chain WT (antibody, IgG1, V domains shown)
VH: EVQLVESGGGLVQPGGSLRLSCAASGFTFSPFAMHWVRQAPGKGLEWVAKISPGGSWTYYSDTVTDRFTFSLDTSKSTAYLQMNSLRAEDTAVYYCARSLWGYYALDIWGQGTLVTVSS
VL: DIQLTQSPSSLSASVGDRVTITCSASISVSYMYWYQQKPGKAPKLLIYDMSNLASGVPSRFSGSGSGTDFTLTISSLQPEDFATYYCMQWSGYPYTFGQGTKVEIK
notes: IgG1; variable domains only
B13: Anti-IL-6 antibody, heavy chain S35H, G66D, Q99K / light chain M32L, M50D, N52S, M88Q (antibody, IgG1, V domains shown)
VH: EVQLVESGGGLVQPGGSLRLSCAASGFTFSPFAMHWVRQAPGKGLEWVAKISPGGSWTYYSDTVTDRFTFSLDTSKSTAYLQMNSLRAEDTAVYYCARKLWGYYALDIWGQGTLVTVSS
VL: DIQLTQSPSSLSASVGDRVTITCSASISVSYLYWYQQKPGKAPKLLIYDDSSLASGVPSRFSGSGSGTDFTLTISSLQPEDFATYYCQQWSGYPYTFGQGTKVEIK
notes: as for B1
B14: Anti-IL-6 antibody, heavy chain S35H, G66D, Q99P / light chain M32L, M50D, N52S, M88Q (antibody, IgG1, V domains shown)
VH: EVQLVESGGGLVQPGGSLRLSCAASGFTFSPFAMHWVRQAPGKGLEWVAKISPGGSWTYYSDTVTDRFTFSLDTSKSTAYLQMNSLRAEDTAVYYCARPLWGYYALDIWGQGTLVTVSS
VL: DIQLTQSPSSLSASVGDRVTITCSASISVSYLYWYQQKPGKAPKLLIYDDSSLASGVPSRFSGSGSGTDFTLTISSLQPEDFATYYCQQWSGYPYTFGQGTKVEIK
notes: as for B1
B15: Anti-IL-6 antibody, heavy chain S35H, G66D, Q99F / light chain WT (antibody, IgG1, V domains shown)
VH: EVQLVESGGGLVQPGGSLRLSCAASGFTFSPFAMHWVRQAPGKGLEWVAKISPGGSWTYYSDTVTDRFTFSLDTSKSTAYLQMNSLRAEDTAVYYCARFLWGYYALDIWGQGTLVTVSS
VL: DIQLTQSPSSLSASVGDRVTITCSASISVSYMYWYQQKPGKAPKLLIYDMSNLASGVPSRFSGSGSGTDFTLTISSLQPEDFATYYCMQWSGYPYTFGQGTKVEIK
notes: IgG1; variable domains only
B16: Anti-IL-6 antibody, heavy chain S35H, G66D, Q99G / light chain WT (antibody, IgG1, V domains shown)
VH: EVQLVESGGGLVQPGGSLRLSCAASGFTFSPFAMHWVRQAPGKGLEWVAKISPGGSWTYYSDTVTDRFTFSLDTSKSTAYLQMNSLRAEDTAVYYCARGLWGYYALDIWGQGTLVTVSS
VL: DIQLTQSPSSLSASVGDRVTITCSASISVSYMYWYQQKPGKAPKLLIYDMSNLASGVPSRFSGSGSGTDFTLTISSLQPEDFATYYCMQWSGYPYTFGQGTKVEIK
notes: IgG1; variable domains only
B17: Anti-IL-6 antibody, heavy chain S35H, G66D, Q99H / light chain M32L, M50D, N52S, M88Q (antibody, IgG1, V domains shown)
VH: EVQLVESGGGLVQPGGSLRLSCAASGFTFSPFAMHWVRQAPGKGLEWVAKISPGGSWTYYSDTVTDRFTFSLDTSKSTAYLQMNSLRAEDTAVYYCARHLWGYYALDIWGQGTLVTVSS
VL: DIQLTQSPSSLSASVGDRVTITCSASISVSYLYWYQQKPGKAPKLLIYDDSSLASGVPSRFSGSGSGTDFTLTISSLQPEDFATYYCQQWSGYPYTFGQGTKVEIK
notes: as for B1

human IL-6, sequence (P05231 30-212 limits assumed): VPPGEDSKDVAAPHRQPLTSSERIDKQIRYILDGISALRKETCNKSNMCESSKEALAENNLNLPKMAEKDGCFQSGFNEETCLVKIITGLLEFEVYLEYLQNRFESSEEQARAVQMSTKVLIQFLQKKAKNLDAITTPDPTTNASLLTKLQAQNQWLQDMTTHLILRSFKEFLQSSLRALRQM

The experiment has as its target human IL-6 (human, UniProt P05231 30-212). Briefly: SPR Biacore, supernatant, Protein A capture, 37 C. As to the method:
Those four positions were selected based on their tolerance for mutations as observed in bacterial and mammalian screens. […] These cultures were centrifuged and supernatants containing secreted antibodies were harvested and diluted in HBS-EP+ running buffer (1:20 ratio).
Antibodies were captured on a Protein A chip (GE) by injecting 1:20 cell supernatant dilutions at 10 μL/min for 60 seconds. […] The sensor chip was regenerated by a 60 seconds injection of 10 mM Glycine pH 1.7 at the flow rate of 50 μL/min. […] For this setup, 1 μg/mL of purified antibody was injected over a Protein A chip at 10 μL/min for 25 seconds. […] The sensor chip was regenerated by a 60 seconds injection of 10 mM Glycine pH 1.7 at flow rate of 50 μL/min. Data analysis for supernatant and purified samples were performed using BIAevaluation software (GE). All sensorgrams were double reference subtracted and fit using a 1:1 Langmuir binding model.
B1 displayed a Kd of 0.0997 nM, a koff of 0.000113 s⁻¹ and a kon of 1.14e+06 M⁻¹ s⁻¹.
For B2, the affinity, expressed as Kd, was 11.4 nM; the koff amounted to 0.00161 s⁻¹; the kon was 141000 M⁻¹ s⁻¹.
The molecule B3 showed a Kd of 7.66 nM, a koff of 0.00154 s⁻¹ and a kon of 201000 M⁻¹ s⁻¹.
For the molecule B4, binding was characterised by a dissociation constant (Kd) of 1.7 nM, the koff amounted to 0.00136 s⁻¹ and the kon came to 802000 M⁻¹ s⁻¹.
For the molecule B5, the affinity, expressed as Kd, was 15.1 nM; the koff worked out at 0.00333 s⁻¹; the kon came out at 220000 M⁻¹ s⁻¹.
The corresponding values for B6 are 2.34 nM, 0.000657 s⁻¹ and 280000 M⁻¹ s⁻¹.
B7: binding was put at a Kd of 0.595 nM, the koff turned out to be 0.000775 s⁻¹ and the kon came to 1.3e+06 M⁻¹ s⁻¹.
As to B8, the affinity, expressed as Kd, was 2.58 nM; the koff turned out to be 0.00774 s⁻¹; the kon was 3e+06 M⁻¹ s⁻¹.
As for B9, the Kd was found to be 3.86 nM, the koff is 0.00335 s⁻¹ and the kon was 868000 M⁻¹ s⁻¹.
B10 displayed a Kd of 0.0381 nM, a koff of 0.000206 s⁻¹ and a kon of 5.41e+06 M⁻¹ s⁻¹.
On the same counts, the results for B11 are 0.244 nM, 0.000262 s⁻¹ and 1.07e+06 M⁻¹ s⁻¹.
The corresponding values for B12 are 6.48 nM, 0.0257 s⁻¹ and 3.96e+06 M⁻¹ s⁻¹.
Regarding B13, the Kd came to 0.368 nM, the koff stood at 0.00146 s⁻¹ and the kon worked out at 3.97e+06 M⁻¹ s⁻¹.
Take B14: binding was put at a Kd of 1.35 nM, the koff turned out to be 0.00169 s⁻¹ and the kon came out at 1.25e+06 M⁻¹ s⁻¹.
The corresponding values for B15 are 3.39 nM, 0.00166 s⁻¹ and 489000 M⁻¹ s⁻¹.
On the same counts, the results for B16 are 0.961 nM, 0.0033 s⁻¹ and 3.43e+06 M⁻¹ s⁻¹.
The corresponding values for B17 are 5.52 nM, 0.00441 s⁻¹ and 798000 M⁻¹ s⁻¹.

The values above are taken from patent publication US20240209076A1 (KODIAK SCIENCES, published 2024).
